B1: HDV Ribozyme (parent)
chain: GGCCGGCAUGGUCCCAGCCUCCUCGCUGGCGCCGGCUGGGCAACAUUCCGAGGGGACCGUCCCCUCGGUAAUGGCGAAUGGGACCCA

The values below come from the RNAGym collection of RNA variant scans (doi:10.7554/elife.80360).

The variants in the series derive from B1. The series is described as follows: self-cleavage, relative activity (ratio to wild type); higher = more cleavage; co-transcriptional.
For GGCCGGCAUGAUCCCAGCCUCCUCGCUGGUGCCGGCUGGGCAACAUUCCGAGGGGACCGUCCCCUCGGUAAUGGCGAAUGGGACCCA [G11A C30U], the self-cleavage stood at 0.0645.
Next, GGCCGGCAUGGUCCCAGCCUCCUCGCUGGCGCCGGCUGGGCAACAUUCCGAGGGGACCGUCCCCUCGGUAAUUGCGAACGGGACCCA [G73U U79C]: 0.169; GGCCGGCAUGGUCCCAGCCUCCUCGCUGGCGCCGGCUGGGCAACAUUCAGAGGGGACCGUCCCCUCGGUAAUGGCGAAUGGGUCCCA [C49A A83U]: 0.719; GGCCGGCAUGGUCCCAGCCUCCUCGCUGGCGCCGGCUGGGCAACAUUUCGAGGGGACCCUCCCCUCGGUAAUGGCGAAUGGGACCCA [C48U G59C]: 1.23.
For GGCCGGCAUGGUCCCAGCCUCCUCGCUGGCGCCGACUGCGCAACAUUCCGAGGGGACCGUCCCCUCGGUAAUGGCGAAUGGGACCCA [G35A G39C], the self-cleavage was determined as 0.113.
Next, GGCCGGAAUGGUCCCAGCCUCCUCGCUGGCGCCGGCUGAGCAACAUUCCGAGGGGACCGUCCCCUCGGUAAUGGCGAAUGGGACCCA [C7A G39A]: 0.0739.
In the case of GGCCGGCAUGGUCCCAGCCUCCUCGCUGGCGCCGGCUGGGCAACAUUACGUGGGGACCGUCCCCUCGGUAAUGGCGAAUGGGACCCA [C48A A51U], the self-cleavage came to 1.1.
As to GGCCGGCAUGGUCCCAGCCUGCUCGCUGGCGCAGGCUGGGCAACAUUCCGAGGGGACCGUCCCCUCGGUAAUGGCGAAUGGGACCCA [C21G C33A], the self-cleavage was found to be 0.
Next, GGCCGGCAUGGUCCCAGCCUCCUCGCUGGCGCCGGCUGGGCAAAAUUCCGAGGGGACCGUCCCCUCGGUAAGGGCGAAUGGGACCCA [C44A U72G]: 0.431.
On to GCCCGGCAUGGUCCCAGCCUCCUCGCUGGCGCCGGCUGGGCAACUUUCCGAGGGGACCGUCCCCUCGGUAAUGGCGAAUGGGACCCA [G2C A45U], for which the self-cleavage worked out at 0.
Next, GGCCGGCGUGGGCCCAGCCUCCUCGCUGGCGCCGGCUGGGCAACAUUCCGAGGGGACCGUCCCCUCGGUAAUGGCGAAUGGGACCCA [A8G U12G]: 0.712; GGCCGGCAUGGUCCCAGCCUCCUCGUUGGCGCCGGCUGGGCAACAUUCCGAGGGGACCGUCCCCUCGGUAAUGGCGAAUGGGUCCCA [C26U A83U]: 0.79; GGCCCGCAUGGUCCCAGCCUCCUCGCUGGCGCCGGCUGGGCAACAUUCGGAGGGGACCGUCCCCUCGGUAAUGGCGAAUGGGACCCA [G5C C49G]: 0.192.
Next, GGCCUGCAUGGUCCCAGCCUCCUCGCUGGCGCCGGCUGGGCAACAUUCCGAGGGGACCGUACCCUCGGUAAUGGCGAAUGGGACCCA [G5U C61A]: 0.399; GGCCGGCAUGGUCCCAGCCUCCUCGCUGGCGCCGGCUGGGCAACAUUCCGAGGGGACCGUCCCCUCGGUAACGGCGAAUGGGACCGA [U72C C86G]: 0.277.
Next, GGCCGGCAUGGUCGCAGCCUCCUCGCUGGCCCCGGCUGGGCAACAUUCCGAGGGGACCGUCCCCUCGGUAAUGGCGAAUGGGACCCA [C14G G31C]: 0.145; GGCCGGCAUGGUCCCAGCCUCCUCGCUGGCGCCGGCUGGGCAACAUUCCGAGGGGACCGUCCUCUCCGUAAUGGCGAAUGGGACCCA [C63U G67C]: 0.96; GGCCGGCAUGGUCCCAGCCUCCUCGCUGGCGCCGGCUGGGCAACUUUCCGUGGGGACCGUCCCCUCGGUAAUGGCGAAUGGGACCCA [A45U A51U]: 0.767.
For GGCCGGCAUGGUCCCAGCCUCCUCGCUGGCGCCGGCUGAGCAACAUUCCGAGGGGACCGUCGCCUCGGUAAUGGCGAAUGGGACCCA [G39A C62G], the self-cleavage was 0.129.
Turning to GGCCGGCAUGGUCCCAGUCUCCUCGCUGGCGCCGGCUGGGCAACAUUCAGAGGGGACCGUCCCCUCGGUAAUGGCGAAUGGGACCCA [C18U C49A], the self-cleavage turned out to be 0.623.
Then GGCCGGCAUGGUCCCAGCCUCCUCGCUGGCGCCGGCUGGGCAACAUUCCGAGGGGUCCGUCGCCUCGGUAAUGGCGAAUGGGACCCA [A56U C62G], with 0.601.
Next, GCCCGACAUGGUCCCAGCCUCCUCGCUGGCGCCGGCUGGGCAACAUUCCGAGGGGACCGUCCCCUCGGUAAUGGCGAAUGGGACCCA [G2C G6A]: 0.0839.
Next, GGCCGGCAUAGUCCCAGCCUCCUCGCUGGCGCCAGCUGGGCAACAUUCCGAGGGGACCGUCCCCUCGGUAAUGGCGAAUGGGACCCA [G10A G34A]: 0.164; GGCCGGCAUGGUCCCAGUCUCCUCGCUGGCGCCGGCUGGGCAGCAUUCCGAGGGGACCGUCCCCUCGGUAAUGGCGAAUGGGACCCA [C18U A43G]: 0.17.
Consider GGCCGGCAUGGUCCCAGCCUCCUCGCUGGCGCCGGCUGGGCAACAUUCCGAGGGGACCGUCCCCUCGGUCAUGGCGAAUAGGACCCA [A70C G80A], for which the self-cleavage was 0.177.
Next, GGCCGGCAUGGUCCCAGCCUGCUGGCUGGCGCCGGCUGGGCAACAUUCCGAGGGGACCGUCCCCUCGGUAAUGGCGAAUGGGACCCA [C21G C24G]: 0.0504; GGCCGGCAUGGUCCCAGCCUCCUCGCUGGCCCCGGCUUGGCAACAUUCCGAGGGGACCGUCCCCUCGGUAAUGGCGAAUGGGACCCA [G31C G38U]: 0.123; GGCCGGCAUGGUCCCGGCCUCCUCGCUGGCGCCGGCUGGGCAACAUUCCGAGGGGAACGUCCCCUCGGUAAUGGCGAAUGGGACCCA [A16G C57A]: 1.18.
Next, GGCCGGCAUAGUCCCAGCCUCCUCGCUGGCGCCGGCUGGGCAACAUUCCGAGGUGACCGUCCCCUCGGUAAUGGCGAAUGGGACCCA [G10A G54U]: 0.84.
Then GGCCGGCAUGGUCCCAGCCUCCUCGCUGGCGCCGGCUGGUCAACAUGCCGAGGGGACCGUCCCCUCGGUAAUGGCGAAUGGGACCCA [G40U U47G], with 0.46.
For the variant GGCCGGGAUUGUCCCAGCCUCCUCGCUGGCGCCGGCUGGGCAACAUUCCGAGGGGACCGUCCCCUCGGUAAUGGCGAAUGGGACCCA [C7G G10U], the self-cleavage came to 0.0462.
Then GGCCGGCAUGGUCCCCGCCUCCUCGCUGGCGCCGGCUGGGCAACAUUCCGAGGGGACCGUCCCCUCGGUAAUGGCGAUUGGGACCCA [A16C A78U], with 0.256.
